The values below come from paper PMC3511536, “The Interleukin 3 Gene (IL3) Contributes to Human Brain Volume Variation by Regulating Proliferation and Survival of Neural Progenitors”.

In the data set the target is SP1 (Homo sapiens, UniProt P08047 1-785). The data set can be described thus: EMSA; 10 mM Tris-HCl pH 7.5, 1 mM MgCl2, 0.5 mM EDTA, 0.5 mM DTT, 50 mM NaCl, 50 ug/ml poly(dI-dC), 4% glycerol, 35 fmol probe, 20 min, room temperature; 6% native PAGE. The following applies: protein: recombinant; label: 3' biotin; blunt. In general terms: In EMSA bound probe runs differently from free probe, usually more slowly.
SP1, sequence (P08047 whole entry): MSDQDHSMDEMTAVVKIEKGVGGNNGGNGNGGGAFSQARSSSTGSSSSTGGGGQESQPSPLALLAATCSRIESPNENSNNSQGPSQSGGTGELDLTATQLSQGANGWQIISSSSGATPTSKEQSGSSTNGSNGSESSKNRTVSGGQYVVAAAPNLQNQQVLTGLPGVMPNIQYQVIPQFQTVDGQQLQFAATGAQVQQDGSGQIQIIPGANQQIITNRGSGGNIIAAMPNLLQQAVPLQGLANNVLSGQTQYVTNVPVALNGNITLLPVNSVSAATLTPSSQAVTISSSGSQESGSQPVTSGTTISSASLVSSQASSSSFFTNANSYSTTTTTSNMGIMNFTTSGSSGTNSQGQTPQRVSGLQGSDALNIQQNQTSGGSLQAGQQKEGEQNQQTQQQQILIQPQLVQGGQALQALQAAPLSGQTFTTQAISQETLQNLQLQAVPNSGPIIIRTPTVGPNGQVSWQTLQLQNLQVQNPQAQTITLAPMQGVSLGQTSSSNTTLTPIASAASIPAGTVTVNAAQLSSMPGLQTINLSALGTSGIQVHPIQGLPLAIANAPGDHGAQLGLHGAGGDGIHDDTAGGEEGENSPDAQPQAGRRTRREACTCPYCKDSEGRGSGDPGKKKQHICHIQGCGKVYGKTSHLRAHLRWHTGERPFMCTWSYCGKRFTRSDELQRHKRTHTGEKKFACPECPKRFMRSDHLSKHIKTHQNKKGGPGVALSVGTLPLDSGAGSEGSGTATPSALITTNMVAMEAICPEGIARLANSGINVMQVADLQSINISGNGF

B1: IL3 promoter rs31480 T-allele (dsDNA)
DNA 1: TGCACATATAAGGCGGGAGGTTGTTGCCAACGCTTCAGAGC
DNA 2: GCTCTGAAGCGTTGGCAACAACCTCCCGCCTTATATGTGCA
For B1, the binding result is given as “binds”.

B2: IL3 promoter rs31480 C-allele (dsDNA)
DNA 1: TGCACATATAAGGCGGGAGGCTGTTGCCAACGCTTCAGAGC
DNA 2: GCTCTGAAGCGTTGGCAACAGCCTCCCGCCTTATATGTGCA
With B2, the binding result is reported as “no binding”.
